{"source": "the nanobody polyreactivity screen of Harvey et al. (2022)", "data": [{"assay": "yeast display, Sf9 membrane polyspecificity reagent, FACS + sequencing; frameworks hold sequencing errors", "in_short": "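Synthetic nanobody libraries on Saccharomyces cerevisiae BJ5465 were galactose-induced for 36–48 hours, stained 1 hour at 4 °C with 10% biotinylated, detergent-solubilized Sf9 membrane reagent and enriched on streptavidin microbeads. FACS then separated cells into low and high (top ~1%) gates by anti-HA (expression) and streptavidin (reagent binding) fluorescence. Genes were colony-PCR amplified, MiSeq 2 × 250 sequenced and CDR-length filtered. A clone's polyreactivity label is that of its gate of origin.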", "values": [{"sequence": "QGQLVESGGGLVQAGGSLRLSCAPTGRTFAHYARGWYRQAHWTERELVAGITRRAGSTYYADSVKGRFTISRDNAKHSVYLHMNSLKPEETEVYYCAAPRDWDAGDYWGQGTQVTVSS", "polyreactivity (PSR sort gate)": "high polyreactivity"}, {"sequence": "QGQLVESGGGLVQAGGSLRLSSAASGSTFVGNAMGWYRQAPGKEREMVATISNSGGRTYYADSVKGRFTISRDNAKNTVYLQMTSLKPEDTAVYDCAADHPAFGPGYSFDYWGQGTQVTLSS", "polyreactivity (PSR sort gate)": "low polyreactivity"}, {"sequence": "QGQLVESGGGLVQAGGSLRLTCAASGFIFDNYAMGWYRHAPGKERELVADISWGGGSTYYADSVKGRFTISRDNAKNTVYLQMNSLTPEDTAVYYCDAQYSYRMDYWGQGTQVTVSS", "polyreactivity (PSR sort gate)": "low polyreactivity"}, {"sequence": "QGQLVESGGGLVQAGGSLRLTCAASGITFDDYAMGWYRQAPGKERELVAAISWSGDITYYADSVKGRFTSSRDNATNTVYLQMNSLKPEDTAVYYCAADLSPYGYDYWGQGTQVTVSS", "polyreactivity (PSR sort gate)": "low polyreactivity"}, {"sequence": "QGQLVESGGGLVQAGGSLRLTCAASGRIFKWYAMGWYIQETGKERELVAAISSAGSTYYADSVKGRFTISRDNAKNTVYLQLNSLKPEDTAVYYCAARKYTFRRKSRYGYWGQGTQVTVSS", "polyreactivity (PSR sort gate)": "high polyreactivity"}, {"sequence": "QGQLVESGGGLVQARGSLRLSCAAYGRTFYGNVMGWYRQAPGNERELDATISVSSGSTYYADSVKGRFTISRDTEKNTVYLLMNSLKPEDSAVYYCNADDTDYATGGGNYWGQGTQVTVSS", "polyreactivity (PSR sort gate)": "low polyreactivity"}, {"sequence": "QGQLVESGGRLVQAGVSLRLSCAASGFIFPKYAMGWYRQAPGKERELVAVITWRSGSTYYADSVKGRFTISRDNAKNTVYLQMNSLKTEETADYYCNARRSSGRYSKMGYWGQGTQVTVSS", "polyreactivity (PSR sort gate)": "high polyreactivity"}, {"sequence": "QGQLVESGGVLVQAGGSLRLSCAASGSIIQPYAMGWYRQAPGKERELVAAISRGGTTYYADSVKGRFTISRDNAKNTVYLQMNSLKPEDTAVYYCAVKGYRYGTRYDYWGQGTQVTVSS", "polyreactivity (PSR sort gate)": "high polyreactivity"}, {"sequence": "QGQLVESGRGLVQAGGSLRLSCAASGRTFRRYGKGWYRQAPGNERELVAAITSGGGTYYEDSVKGRVTISRDNAKNTVYLQMNSLKPEDTAVYYCAAQRVYKSSPSYDFWGQGTQVTVSS", "polyreactivity (PSR sort gate)": "low polyreactivity"}, {"sequence": "QGQLVESGRGLVQAGGSLRLSSAASGSTFFANAMGWYRQAPGKERELVAAIDKRGGRTYYADSVKGRFTISRDNAKNTVYLQMNSLKPEDTAVYYCNAVANYRLKYDYWGQGTQVTVSS", "polyreactivity (PSR sort gate)": "high polyreactivity"}, {"sequence": "QGQLVETGGGLVQAGGILRLSCAASGSIFGDYDMGWYRQDPGKERDLVAAITSSGGMTYYADSVKGRFTISRDNAKNTVYFQMNSLKPVDTAVYYCAAYGYGSKYRYTGYYYWGQGTQVTVSS", "polyreactivity (PSR sort gate)": "low polyreactivity"}, {"sequence": "QGQRVESGGGLVQAGGSLRLSCAASGSIFTYAMGGSRQAPGNERELGAAISRSGGRTYYADSGKGRFTISRDNAKNTVSLHMNSLKPEDTAVYYCAALLLKDYDYWGPGTQVTVSS", "polyreactivity (PSR sort gate)": "low polyreactivity"}, {"sequence": "QHHLVESGGGLVQAGGSLRLSCAASGRPLQGYAMGWYRQAPGKHRELVAAITWSGGSTYYADSVKGRFTISRDKAKNTVYLQMNSLKPEDTAVYYCATDDDSARFDYWGQGTQVTVSS", "polyreactivity (PSR sort gate)": "low polyreactivity"}, {"sequence": "QHQLVDSGVCLVQAGRSLRLSCDASGYTFYIYAMGWYTQAPRKERELVATISSSGGGTYYADSVKGRFTISRDNAKNTVYLQMNSLNPEDTAVYYCNADGWYWQAQGYDYWGQGTQVTVSS", "polyreactivity (PSR sort gate)": "low polyreactivity"}, {"sequence": "QIQLVESCGGLVQAGGSLRLICDDSGITFTIYAMGGYRQAHGKERELVAAIDSGGGTNYADSVKGRFTISRDNAKNTVYLQMNSLKPEDTAFYYCAAYWYAEGYWVSRDYWGQGTQVTVSS", "polyreactivity (PSR sort gate)": "low polyreactivity"}, {"sequence": "QIQLVESVGGLVQAGGSLRLSCAASGSIFQYYAMGWYRQAPGKERELVAAISSGGSTYYADSVKGRFTISRENAKNTVYLQMNSLKPEDTAVYYCAADLQSGYTIPTSIVEYHPFDYWGQGTQGTVSS", "polyreactivity (PSR sort gate)": "low polyreactivity"}, {"sequence": "QLHLEESGGGLVQAGGSLRISCAASGSTFGIYAMGSYRQAPGKEREILAAISVGGGRTYYADTVKGRFTISRDNAKNTVLLQMNSLKPEDTAVYYCAVYGFWGLGTQVTVSS", "polyreactivity (PSR sort gate)": "high polyreactivity"}, {"sequence": "QLLLQESGRGLVQAGVSLRLSCAASGSIFLVYTIGCYRKAPLKEREFVAGIPLGTTTYNADSVKGRFTISRDNVKNTVYLQINSLKPEDTSVYYCAVAVGHYTDIWDWGQGTQVTMSS", "polyreactivity (PSR sort gate)": "high polyreactivity"}, {"sequence": "QLLLVESGGGLVQAGGSLRLSCATSGIILRYYAMGWYRQAPGKERELVAAISGSGTRTYYADSVKGRFTISRDNAKNTVYLQMNSLKPEDTAVYYCAAAHPATRYDYWGQGTQVTVSS", "polyreactivity (PSR sort gate)": "high polyreactivity"}, {"sequence": "QLQHEESRGGLVQAGGSLRLSCAASGFIFPAYVMGWYRQAPGKERELVSAIDWSGDNTYYADSVKGRFTISRDNAKNTVYLQMNSLTPEDTAVYYCAKDNDYPTEWLSDYYYWGQGTQVTVSS", "polyreactivity (PSR sort gate)": "low polyreactivity"}, {"sequence": "QLQHVESGGGLVQAGGSLRLSCDASGYTFAWYAMGWYIQAPGKESELVAAISVSGGSTYYADSVKGRFTISRDNAKNTVYIQMNSLKPEDTAVYYCAARRYLGYSASYDYWGQGTQVTVSS", "polyreactivity (PSR sort gate)": "high polyreactivity"}, {"sequence": "QLQHVESGGGLVQAGGSLRLTCAASGRTFGYYAMGWYRQAPGKERELVAAITSGGRTYYADSVKGRFTISRDNAKNTVYLQMNSLKPEDTAVYYCNAPPRWCSRVAWYEYWGQGTQVTVSS", "polyreactivity (PSR sort gate)": "high polyreactivity"}, {"sequence": "QLQLEDSGGGLVQAGGILRLSFAASGFTFFYNAMRWYSQAPATEREFDAAISGRGGTTYYADSVKGRFTISRDNAKNTVYLQMNSVKPEDTAVYYCAARSVSTLRYTSGKLRYDYWGQGTQVTVSS", "polyreactivity (PSR sort gate)": "high polyreactivity"}, {"sequence": "QLQLEDSGGGLVQAGGSLRISCAASARIVGGNTMGWYRQAPGKERELVAAITYRGGSTYYADSVKGRFTISRDNAKYTVYLQINSLKPVATAVYYCATAGYWGGDYWGQGTQVTVSS", "polyreactivity (PSR sort gate)": "low polyreactivity"}, {"sequence": "QLQLEESAGGLVQAGGSLRLSCAASGLTFPSYVMGRYRPAPGKEREFVAASTGSAGSTYYADSVKGRLTISRDNAKNTVYLQMISLKPEDSAVYYCAARVRYVNPKYYYWGHGTQVTVSS", "polyreactivity (PSR sort gate)": "high polyreactivity"}, {"sequence": "QLQLEESGGGLVQAGGSLRLSFAASGLTFGRNAMGWYRQATGKVREFVAAISKSGTSTYYADSVKGRFTISRDNAKNTVYLQMISLKPEDTAVYDCARTNYAKRWDFDYWGQGTQVTVSS", "polyreactivity (PSR sort gate)": "low polyreactivity"}, {"sequence": "QLQLGESGGGLVQAGGSLRLSCAASGRTFKDYAMGWYREAPGKERELVAAISWSGGDTYYADSVKGRFTISRDNAKNTVYLQMNSLKPEDTAVYYCNADPSGVFFYSLEFEYWGQGTQVTVSS", "polyreactivity (PSR sort gate)": "low polyreactivity"}, {"sequence": "QLQLHESGGGLVQAGGSLRLSCAASGTISYAGPMGWYRQAPGKEREFVAGIGVGSNTNYADSVKGRYTIIRDNAKNTVYLQMNSLKPEDTAVYYCAVGGYAPLGRPYWGQGTQVTVSS", "polyreactivity (PSR sort gate)": "low polyreactivity"}, {"sequence": "QLQLLESGGGLDQPGGSLRLSSAASGRTFYRYVMGWYRQEPGKERELVAAIRSSGTTTYYADSVKGRFTISRDNAKNTVYIKMNCVIPEDTAVYYCARDSYRGYVYSLDYWGQGTQVTVSS", "polyreactivity (PSR sort gate)": "high polyreactivity"}, {"sequence": "QLQLQESGGGLVQAGGSLRLSCAASGSISRMDYMAWYRQASGKERELVAAIDNGSTTYYADSVKGRLTISRDNAKYTVYLQMNSLKPEDSAVYFCAAVRGRGGTHAYWGQGTQVTVSG", "polyreactivity (PSR sort gate)": "low polyreactivity"}, {"sequence": "QLQLQESIGGLVQAGGSLRMSCAASGTIFHFHIMGWYRQAPGKEREFVAAISYGTSTYYADSVKGRFTISRDNAKNTVYLHMNSQKPEDTAVYYCAVYDYLEVYCWYWGQGTQVTLSS", "polyreactivity (PSR sort gate)": "low polyreactivity"}, {"sequence": "QLQLVDSGGGLVQAGGSLRLSCAASGLIFPAYTMGWYRQAPGKQRELVAAISRSGGSTYYADSVKGRFTISRDNAKNTVYLQMNSLKTEDTAVYYCAAFYSGGYDYWGQGTQVTVSS", "polyreactivity (PSR sort gate)": "high polyreactivity"}, {"sequence": "QLQLVESGAGLVQAGGSLRLICAASGSIFKSYAMGWYRQAPGKQMEFVAAISWSGGSTYADSVKGRFTISRDNAKNTVYLQMNSLKPEDTAVYYCNKDDYWFLGFYYWGQGTQVTVSS", "polyreactivity (PSR sort gate)": "low polyreactivity"}, {"sequence": "QLQLVESGGALVQAGGSLRLSCAASGSTFTVNGMGWYRQAPGKERELVAAIDGGDGSTYYADSVKGRFTISRDNAKNTVYLQMNSLKPEDTAVYYCAADPPGFTQYGYWGQGTKVTVSS", "polyreactivity (PSR sort gate)": "low polyreactivity"}, {"sequence": "QLQLVESGGGIVQAGGSLRLSCAPSGRIFFPNAMGSYRQAPGTERELVAGISIGGSTNYADSVKGRFTISRDNAKNTVYLQMNSLKPEDTAVYYWAARSPFGRWRDYWGQGTQVTVSS", "polyreactivity (PSR sort gate)": "low polyreactivity"}, {"sequence": "QLQLVESGGGLDQAGGSLRLSCAASRYTMGWYRQAPGKEMELVPAITGGGSTNYADSVKGRFTISRDNAKNTVYLHMNSLKPEDTAVYYCAVDYAVSYAGWVLRYDYWGQGTQVTVSS", "polyreactivity (PSR sort gate)": "low polyreactivity"}, {"sequence": "QLQLVESGGGLVQAGGRLRLSCAASGLTFQYNAMGWYRQAPGKERELVASINSGGSTDYADSVKGRFTISRDNAKNTVYLQMNRLKQEDTAVYYCASSGYWYSASYGYEYWGQGTQVTVSS", "polyreactivity (PSR sort gate)": "low polyreactivity"}, {"sequence": "QLQLVESGGGLVQAGGRLRLSCASSGSTFHSYVMGWYRPAPGKERELVAAITSRGGSTNYADSVKGRFTISRENAKNTVYLHMNSLKPEDTAVYYCAADGYWGWSYFRYDYLGQGTQVTVSS", "polyreactivity (PSR sort gate)": "low polyreactivity"}, {"sequence": "QLQLVESGGGLVQAGGRLRLSSAASGRTFRYYAMGWYRQAAGKERELVASITSGGRTYYADSVKGRFTISRDNAKNTVYLQMNSLKPEDTAVYYCAADRFGIGGKRGNDYWGQGTQVTVSS", "polyreactivity (PSR sort gate)": "high polyreactivity"}, {"sequence": "QLQLVESGGGLVQAGGSLRISCAASGSTFGRNAMGWYRQAPGKERELVAVISKSGGSTYYADSVKGRFTISRDNAKNTVYLQMNSLKPEDTAVYYCAARYYSYWREYQHFDYWGQGTQVTVSS", "polyreactivity (PSR sort gate)": "high polyreactivity"}, {"sequence": "QLQLVESGGGLVQAGGSLRLSCAASGFIDAYTMGWYRQAPGKERELVAAITWSGGRTYYADSVKGRFTISRDNAKNTVYIQRNSLKPEDNAVYYCAKDVTPYSPDEDYWGQGSQVTVSS", "polyreactivity (PSR sort gate)": "low polyreactivity"}, {"sequence": "QLQLVESGGGLVQAGGSLRLSCAASGFTFRWYVMGWYRQAPCKQRELVASIRSGGSTYYADSVKGRFTISRDNAKNTVYLQMNSLKPEDTAVYYCAARFGRDRYYYWGQGTQVTVSS", "polyreactivity (PSR sort gate)": "high polyreactivity"}, {"sequence": "QLQLVESGGGLVQAGGSLRLSCAASGFTFYAYAMGWYRQAPGKERELVAAINSGGGSRTYYADSVKGRFTISRDNAKNTVYLQMNCLKPEDTAVYYCAARVYGVDGYGYWGQGTEVTVSS", "polyreactivity (PSR sort gate)": "high polyreactivity"}]}]}
